Test results from paper PMC2133002 (The Journal of Cell Biology, 1998).

T1: membrin (rat (endogenous in rat liver), UniProt O35165 1-212)
T1 sequence: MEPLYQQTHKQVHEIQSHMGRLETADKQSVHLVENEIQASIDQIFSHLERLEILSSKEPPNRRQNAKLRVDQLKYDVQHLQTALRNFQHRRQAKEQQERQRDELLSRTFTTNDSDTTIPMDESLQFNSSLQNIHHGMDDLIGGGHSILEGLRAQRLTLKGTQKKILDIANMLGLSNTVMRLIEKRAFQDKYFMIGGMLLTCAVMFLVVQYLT

T2: rbet1 (rat (endogenous in rat liver), UniProt Q62896 1-118)
T2 sequence: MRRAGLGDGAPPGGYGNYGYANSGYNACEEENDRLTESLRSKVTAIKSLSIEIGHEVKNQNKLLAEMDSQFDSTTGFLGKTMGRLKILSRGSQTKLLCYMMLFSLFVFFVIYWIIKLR

T3: Golgi SNARE of 28 kD (GOS-28) (rat (endogenous in rat liver), UniProt Q62931 1-250)
T3 sequence: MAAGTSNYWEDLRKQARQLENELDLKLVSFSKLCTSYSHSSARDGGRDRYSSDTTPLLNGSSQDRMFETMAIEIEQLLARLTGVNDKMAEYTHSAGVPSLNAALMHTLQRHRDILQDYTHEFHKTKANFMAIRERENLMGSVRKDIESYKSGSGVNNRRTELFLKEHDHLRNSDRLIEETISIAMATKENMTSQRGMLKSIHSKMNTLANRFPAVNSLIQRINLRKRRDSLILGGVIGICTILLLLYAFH


Columns and labels:
Assay in all cases: co-IP
[1] = target: rbet1 (rat (endogenous in rat liver)) (UniProt Q62896)
[2] = target: membrin (rat (endogenous in rat liver)) (UniProt O35165)
[3] = target: T1, membrin
[4] = target: T2, rbet1
[5] = target: T3, Golgi SNARE of 28 kD (GOS-28)

Row | Molecule | efficiency of coprecipitation (arbitrary units) [1] | efficiency of coprecipitation [3] [arbitrary units] | efficiency of coprecipitation [4] [arbitrary units] | efficiency of coprecipitation [5] [arbitrary units] | further results
1 | rsec22b (from UniProt Q4KM74 1-215) (natural protein) | 247 |  |  |  | 
2 | rbet1 (from UniProt Q62896 1-118) (natural protein) |  |  |  |  | efficiency of coprecipitation (arbitrary units) [2]: 115
3 | syntaxin 5, 34-kD isoform (natural protein) MSCRDRTQEFLSACKSLQSRQNGIQTNKPALHATRQCSEFTLMARRIGKDLSNTFAKLEKLTILAKRKSLFDDKAVEIEELTYIIKQDINSLNKQIAQLQDFVRAKGSQSGRHLQTHSNTIVVSLQSKLASMSNDFKSVLEVRTENLKQQRNRREQFSRAPVSALPLAPNNLGGGPIVLGGESRASRDVAIDMMDPRTSQQLQLIDEQDSYIQSRADTMQNIESTIVELGSIFQQLAHMVKEQEETIQRIDENVLGAQLDVEAAHSEILKYFQSVTSNRWLMVKIFLILIVFFIIFVVFLA |  | 37 | 128 | 134 | 
4 | syntaxin 5, 41-kD isoform (natural protein) MIPRKRYGSKNTDQGVYLGLSKTQVLSPATAINSSSDIAPLPTPVALVPSPPDTMSCRDRTQEFLSACKSLQSRQNGIQTNKPALHATRQCSEFTLMARRIGKDLSNTFAKLEKLTILAKRKSLFDDKAVEIEELTYIIKQDINSLNKQIAQLQDFVRAKGSQSGRHLQTHSNTIVVSLQSKLASMSNDFKSVLEVRTENLKQQRNRREQFSRAPVSALPLAPNNLGGGPIVLGGESRASRDVAIDMMDPRTSQQLQLIDEQDSYIQSRADTMQNIESTIVELGSIFQQLAHMVKEQEETIQRIDENVLGAQLDVEAAHSEILKYFQSVTSNRWLMVKIFLILIVFFIIFVVFLA |  | 25 | 129 | 30 | 

Now from value to molecule, other results behind:

Row | efficiency of coprecipitation (arbitrary units) [1] | efficiency of coprecipitation [3] [arbitrary units] | efficiency of coprecipitation [4] [arbitrary units] | efficiency of coprecipitation [5] [arbitrary units] | Molecule | further results
5 | 308 |  |  |  | membrin (from UniProt O35165 1-212) (natural protein) | 
6 | 139 |  |  |  | syntaxin 5, 31-kD form (degradation product of the 41-kD isoform) (domain or fragment) | 
